# Test results published in US20220040297A1 (Chugai, published 2022).
# Positions count from the first letter of the chain named.
# B1: GLS3000 Q90D (antibody, name in Kabat numbering, V domains shown)
# VH: QVQLVESGGGVVQPGRSLRLSCAASGFTFSNAWMHWVRQAPGKGLEWVAQIKAKSNNYATYYAESVKGRFTISRDDSKNSLYLQMNSLKTEDTAVYYCRYVHYGAYYGVDAWGQGTTVTVSS
# VL: DIVMTQSPLSLPVTPGEPASISCRSSQSLVHSNRNTYLHWYQQKPGQAPRLLIYKVSNRFSGVPDRFSGSGSGTDFTLKISRVEAEDVGVYYCGDGTQVPYTFGQGTKLEIK
# notes: one-arm format as m2
# B2: GLS3000 Q90E (antibody, name in Kabat numbering, V domains shown)
# VH: B1 VH
# VL: B1 VL with D95E
# notes: one-arm format as m2
# B3: GLS3000 Q90P (antibody, name in Kabat numbering, V domains shown)
# VH: B1 VH
# VL: B1 VL with D95P
# notes: one-arm format as m2
# B4: GLS3000 Q90S (antibody, name in Kabat numbering, V domains shown)
# VH: B1 VH
# VL: B1 VL with D95S
# notes: one-arm format as m2
# B5: GLS3000 Q90Y (antibody, name in Kabat numbering, V domains shown)
# VH: B1 VH
# VL: B1 VL with D95Y
# notes: one-arm format as m2
# B6: GLS3000 Q93A (antibody, name in Kabat numbering, V domains shown)
# VH: B1 VH
# VL: B1 VL with D95Q, Q98A
# notes: one-arm format as m2
# B7: GLS3000 Q93D (antibody, name in Kabat numbering, V domains shown)
# VH: B1 VH
# VL: B1 VL with D95Q, Q98D
# notes: one-arm format as m2
# B8: GLS3000 Q93E (antibody, name in Kabat numbering, V domains shown)
# VH: B1 VH
# VL: B1 VL with D95Q, Q98E
# notes: one-arm format as m2
# B9: GLS3000 Q93P (antibody, name in Kabat numbering, V domains shown)
# VH: B1 VH
# VL: B1 VL with D95Q, Q98P
# notes: one-arm format as m2
# B10: GLS3000 Q93R (antibody, name in Kabat numbering, V domains shown)
# VH: B1 VH
# VL: B1 VL with D95Q, Q98R
# notes: one-arm format as m2
# B11: GLS3000 Q93S (antibody, name in Kabat numbering, V domains shown)
# VH: B1 VH
# VL: B1 VL with D95Q, Q98S
# notes: one-arm format as m2
# B12: GLS3000 Q93Y (antibody, name in Kabat numbering, V domains shown)
# VH: B1 VH
# VL: B1 VL with D95Q, Q98Y
# notes: one-arm format as m2
# B13: GLS3000 R24A (antibody, name in Kabat numbering, V domains shown)
# VH: B1 VH
# VL: B1 VL with R24A, D95Q
# notes: one-arm format as m2
# B14: GLS3000 R24D (antibody, name in Kabat numbering, V domains shown)
# VH: B1 VH
# VL: B1 VL with R24D, D95Q
# notes: one-arm format as m2
# B15: GLS3000 R24E (antibody, name in Kabat numbering, V domains shown)
# VH: B1 VH
# VL: B1 VL with R24E, D95Q
# notes: one-arm format as m2
# B16: GLS3000 R24G (antibody, name in Kabat numbering, V domains shown)
# VH: B1 VH
# VL: B1 VL with R24G, D95Q
# notes: one-arm format as m2
# B17: GLS3000 R24P (antibody, name in Kabat numbering, V domains shown)
# VH: B1 VH
# VL: B1 VL with R24P, D95Q
# notes: one-arm format as m2
# B18: GLS3000 R24Q (antibody, name in Kabat numbering, V domains shown)
# VH: B1 VH
# VL: B1 VL with R24Q, D95Q
# notes: one-arm format as m2
# B19: GLS3000 R24S (antibody, name in Kabat numbering, V domains shown)
# VH: B1 VH
# VL: B1 VL with R24S, D95Q
# notes: one-arm format as m2
# B20: GLS3000 R24T (antibody, name in Kabat numbering, V domains shown)
# VH: B1 VH
# VL: B1 VL with R24T, D95Q
# notes: one-arm format as m2
# B21: GLS3000 R24Y (antibody, name in Kabat numbering, V domains shown)
# VH: B1 VH
# VL: B1 VL with R24Y, D95Q
# notes: one-arm format as m2
# B22: GLS3000 R29A (antibody, name in Kabat numbering, V domains shown)
# VH: B1 VH
# VL: B1 VL with R34A, D95Q
# notes: one-arm format as m2
# B23: GLS3000 R29D (antibody, name in Kabat numbering, V domains shown)
# VH: B1 VH
# VL: B1 VL with R34D, D95Q
# notes: one-arm format as m2
# B24: GLS3000 R29G (antibody, name in Kabat numbering, V domains shown)
# VH: B1 VH
# VL: B1 VL with R34G, D95Q
# notes: one-arm format as m2
# B25: GLS3000 R29I (antibody, name in Kabat numbering, V domains shown)
# VH: B1 VH
# VL: B1 VL with R34I, D95Q
# notes: one-arm format as m2
# B26: GLS3000 R29L (antibody, name in Kabat numbering, V domains shown)
# VH: B1 VH
# VL: B1 VL with R34L, D95Q
# notes: one-arm format as m2
# B27: GLS3000 R29P (antibody, name in Kabat numbering, V domains shown)
# VH: B1 VH
# VL: B1 VL with R34P, D95Q
# notes: one-arm format as m2
# B28: GLS3000 R29S (antibody, name in Kabat numbering, V domains shown)
# VH: B1 VH
# VL: B1 VL with R34S, D95Q
# notes: one-arm format as m2
# B29: GLS3000 R29T (antibody, name in Kabat numbering, V domains shown)
# VH: B1 VH
# VL: B1 VL with R34T, D95Q
# notes: one-arm format as m2
# B30: GLS3000 R29V (antibody, name in Kabat numbering, V domains shown)
# VH: B1 VH
# VL: B1 VL with R34V, D95Q
# notes: one-arm format as m2
# B31: GLS3000 R29Y (antibody, name in Kabat numbering, V domains shown)
# VH: B1 VH
# VL: B1 VL with R34Y, D95Q
# notes: one-arm format as m2
# B32: GLS3000 R45D (antibody, name in Kabat numbering, V domains shown)
# VH: B1 VH
# VL: B1 VL with R50D, D95Q
# notes: one-arm format as m2
# B33: GLS3000 R45E (antibody, name in Kabat numbering, V domains shown)
# VH: B1 VH
# VL: B1 VL with R50E, D95Q
# notes: one-arm format as m2
# B34: GLS3000 R45Q (antibody, name in Kabat numbering, V domains shown)
# VH: B1 VH
# VL: B1 VL with R50Q, D95Q
# notes: one-arm format as m2
# B35: GLS3000 R54A (antibody, name in Kabat numbering, V domains shown)
# VH: B1 VH
# VL: B1 VL with R59A, D95Q
# notes: one-arm format as m2
# B36: GLS3000 R54D (antibody, name in Kabat numbering, V domains shown)
# VH: B1 VH
# VL: B1 VL with R59D, D95Q
# notes: one-arm format as m2
# B37: GLS3000 R54E (antibody, name in Kabat numbering, V domains shown)
# VH: B1 VH
# VL: B1 VL with R59E, D95Q
# notes: one-arm format as m2
# B38: GLS3000 R54G (antibody, name in Kabat numbering, V domains shown)
# VH: B1 VH
# VL: B1 VL with R59G, D95Q
# notes: one-arm format as m2
# B39: GLS3000 R54P (antibody, name in Kabat numbering, V domains shown)
# VH: B1 VH
# VL: B1 VL with R59P, D95Q
# notes: one-arm format as m2
# B40: GLS3000 R54Q (antibody, name in Kabat numbering, V domains shown)
# VH: B1 VH
# VL: B1 VL with R59Q, D95Q
# notes: one-arm format as m2
# B41: GLS3000 R54S (antibody, name in Kabat numbering, V domains shown)
# VH: B1 VH
# VL: B1 VL with R59S, D95Q
# notes: one-arm format as m2
# B42: GLS3000 R54T (antibody, name in Kabat numbering, V domains shown)
# VH: B1 VH
# VL: B1 VL with R59T, D95Q
# notes: one-arm format as m2
# B43: GLS3000 R54W (antibody, name in Kabat numbering, V domains shown)
# VH: B1 VH
# VL: B1 VL with R59W, D95Q
# notes: one-arm format as m2
# B44: GLS3000 R77S (antibody, name in Kabat numbering, V domains shown)
# VH: B1 VH
# VL: B1 VL with R82S, D95Q
# notes: one-arm format as m2
# B45: GLS3000 S25A (antibody, name in Kabat numbering, V domains shown)
# VH: B1 VH
# VL: B1 VL with S25A, D95Q
# notes: one-arm format as m2
# B46: GLS3000 S25D (antibody, name in Kabat numbering, V domains shown)
# VH: B1 VH
# VL: B1 VL with S25D, D95Q
# notes: one-arm format as m2
# Molecular target: CD3ε homodimer protein (human, UniProt P07766 23-126, limits assumed)
# Experiment: SPR, immobilized CD3ε homodimer;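 also: biacore T200 surface plasmon resonance at 25 °C, antibody variants flowed as analytes over amine-coupled CD3ε homodimer on a CM4 chip, variant binding amount divided by that of GLS3000 antibody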
# Experimental: Each one-amino acid altered form constructed, expressed, and purified in the paragraph (6-2) was evaluated using Biacore T200 (GE Healthcare Japan Corp.). An appropriate amount of CD3ε homodimer protein was immobilized onto Sensor chip CM4 (GE Healthcare Japan Corp.) by the amine coupling method. Then, the antibody having an appropriate concentration was injected thereto as an analyte and allowed to interact with the CD3ε homodimer protein on the sensor chip. Then, the sensor chip was regenerated by the injection of 10 mmol/L glycine-HCl (pH 1.5). The assay was conducted at 25° C., and HBS-EP+ (GE Healthcare Japan Corp.) was used as a running buffer. […] Each parameter was calculated using Biacore T200 Evaluation Software (GE Healthcare Japan Corp.).
# Specifically, when the amount of the GLS3000-containing antibody bound was defined as X and the amount of the L chain one-amino acid altered form bound was defined as Y, a value of Z (ratio of amounts bound)=Y/X was used.
# Chain of CD3ε homodimer protein (P07766 23-126 limits assumed): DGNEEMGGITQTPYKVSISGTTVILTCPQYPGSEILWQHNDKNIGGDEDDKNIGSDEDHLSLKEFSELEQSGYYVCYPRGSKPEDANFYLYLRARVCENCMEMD
row,Binder,ratio of amounts bound (vs GLS3000)
1,B1,0.19
2,B2,0.85
3,B3,0.27
4,B4,0.73
5,B5,0.17
6,B6,0.85
7,B7,0.72
8,B8,0.75
9,B9,0.25
10,B10,1.13
11,B11,0.96
12,B12,0.87
13,B13,0.86
14,B14,0.75
15,B15,0.83
16,B16,0.89
17,B17,0.7
18,B18,0.9
19,B19,0.89
20,B20,0.88
21,B21,0.87
22,B22,0.63
23,B23,0.41

row,Binder,ratio of amounts bound (vs GLS3000)
1,B24,0.67
2,B25,0.37
3,B26,0.56
4,B27,0.31
5,B28,0.68
6,B29,0.63
7,B30,0.34
8,B31,0.69
9,B32,0.77
10,B33,0.75
11,B34,0.86
12,B35,0.69
13,B36,0.36
14,B37,0.58
15,B38,0.67
16,B39,0.84
17,B40,0.68
18,B41,0.79
19,B42,0.65
20,B43,0.78
21,B44,0.92
22,B45,0.92
23,B46,0.48
